Laboratory results as given in patent EP1212366B1.
Each block holds one substance with its values, some of them ahead of it.

Tests used:
[1] = target: human FcγRI (CD64) on cells (human) (UniProt P12314); assay: cell-based or functional assay
[2] = target: human FcγRI (CD64) on cells (human) (UniProt P12314); assay: flow cytometry, fluorescein-conjugated antibody on monocytes
[3] = target: soluble fusion protein of the extracellular domain of human FcγRI and human IgM heavy chain (sFcγRI-µ) (human) (UniProt P12314); assay: ELISA on captured sFcγRI-µ, against a nonspecific human IgG1 mAb

FcγRI expression on monocytes in whole blood (modulation assay) (% of the level prior to BsAb treatment) [1]: 50
Substance: M22 Fab' x 32.2 Fab' x M22 Fab' chemically linked trivalent antibody

human CD64 surface expression on macrophages of CD64-transgenic mice (M32.2-FITC) [1]: < 50 % reduction
Substance: chemically linked M22 Fab' multimer M22 F(ab')3+

antibody sites per cell (antibody sites per cell) [2]: 10500
percent of binding via the Fv portion [3]: > 95%
Substance: humanized anti-FcγRI antibody H22 (KOL VH/REI Vκ mAb)

antibody sites per cell (antibody sites per cell) [2]: 10000
Substance: murine anti-FcγRI monoclonal antibody M22
